Laboratory results from US9200265B2, “Anti-cocaine compositions and treatment” (priority 2006, dated 2015).
Like-named read-outs stand apart in the source and are kept apart here.

How the values were obtained:
[1] = Cocaine blood levels and lethal concentrations in the rat (literature)
[2] = system: cocaine-induced lethality; test: Cocaine toxicity in mice, incl. repeated CocE doses; format: in vivo, mouse
Excerpt: The animal toxicity model was similar to that described previously, except as described. Male NIH Swiss mice were used. For tail intravenous injection, mice are placed in a small restraint chamber that exposes their tail. A heat lamp with an infrared, 250 w bulb is placed about 4 inches from the tail, and left for a couple of minutes. The tail is then cleansed with an alcohol wipe and a 30 G ½ precision glide needle (Fisher Scientific), is inserted into one of the side veins for infusion. To verify whether the needle is in the vein a small amount of drug is infused, if in the correct location the solution should infuse easily without any indication of an incorrect subcutaneous location, which appears white at the site of injection. For intravenous catheterization, Male NIH Swiss mice are anesthetized with ketamine 100 mg/kg and xylazine 10 mg/kg co-administered i.p. When mice are no longer responsive to paw pressure, the neck is shaved and prepped by alternating Betadine and alcohol wipes. Under clean conditions, a right transverse neck incision is made and the external jugular vein is isolated. A catheter is inserted into the vein with the aid of a dissecting microscope to the level of the right atrium, and is secured in the vein with nylon, 4-0 sutures and tissue adhesive, 3M Vetbond (3M Animal Care Products, St. Paul, Minn.). The catheters are a short length of Tygon tubing with an inner diameter of 0.010 in. and an outer diameter of 0.030 in. (Small Parts, Inc., Miami Lakes, Fla.). A small incision is made in the middle of the animal's back, and a trocar inserted subcutaneously to exit at the ventral incision site. The catheter is then pulled through the trocar and brought out the animal's back where it is held in place with nylon suture material and the tissue adhesive. A short piece of steel wire with a diameter of 0.011 in. (Small Parts, Inc., Miami Lakes, Fla.) is inserted into the end of the catheter. The ventral incision is closed with 4-0 Vicryl suture material and the mouse placed under a heat lamp for recovery. Approximately an hour later, the mouse is returned to its home cage.
Mice that survived a first administration of the combination of 0.32 mg CocE and 320 mg/kg cocaine were given this combination again, 14 days following the initial administration.

[3] = humans; cited from earlier work
[4] = system: cocaine-induced lethality; test: Rodent model of acute cocaine toxicity (convulsions and lethality) in rats
[5] = cited from earlier work
CocE [6] = target: T1, CocE (Rhodococcus sp., UniProt Q9L9D7); test: Inhibition of CocE (cleavage of 4-nitrophenyl acetate); format: biochemical, Rhodococcus sp. MB 1
T1 construct: generating a full-length CocE gene encoding the T172R mutation; His6 (C); made in house; host or cells: E. coli (pET-22b(+))
Method: (§1) Benzoic acid prevented 37° C.-induced formation of high molecular weight CocE aggregates (0.1 mg/ml enzyme concentrations) (see, e.g., FIG. 35). Benzoic acid (uM quantities) stabilized 37° C.-induced activity loss (see, e.g., FIG. 36), although the mechanism of this stabilization is complicated due to substrate inhibition at higher concentrations.
CocE catalyzes the cleavage of 4-nitrophenyl acetate (4NPA) to 4-nitrophenol (4NP) and acetate. The cleavage reaction was monitored by observation of product formation at 400 nm. Both 4NP and 4NPA (mM range) prevented 37° C.-induced formation of high molecular weight CocE aggregates (0.1 mg/ml enzyme concentrations).

CocE [7] = target: T1, CocE; test: Stabilization of 37° C.-induced CocE activity loss; format: biochemical, Rhodococcus sp. MB 1; details: uM quantities
Excerpt: (§2) Cocaine esterase (CocE) cleaves cocaine to produce Benzoic acid and Ecgonine methyl ester. Briefly, alternative substrates and inhibitors of cocaine, as well as compounds able to thermostabilize the enzyme, were investigated generally by substituting amide and thiol analogues at the reactive ester bond, or removing the bond (for inhibitors), substituting benzoyl analogues in place of the benzoic acid leaving group, and/or removing or altering the methyl-ester group on the ecgonine portion of the molecule. As discussed below, it was determined that some substrates, products, and inhibitors stabilized thermal denaturation of wild type CocE, as well as prevented thermally-induced aggregation in gel electrophoresis.
as §1, with “Cocaine is the natural substrate of Cocaine esterase (CocE). Cocaine cleavage was monitored by a drop in absorbance at 240 nm. Cocaine (mM range)” for “Benzoic acid”, “33). Cocaine” for “35). Benzoic acid”, “34),” for “36),”

CocE [8] = target: T1, CocE; test: Stabilization against 37° C.-induced formation of high molecular weight CocE aggregates (gel); format: physicochemical, Rhodococcus sp. MB 1; details: 0.1 mg/ml enzyme, mM range
Method: Plasmids containing the mutations were transformed into E. coli BL21 cells and IPTG-induced enzyme was purified on Ni-Agarose. Expressed proteins were then tested for enzymatic activity and for thermostability at 37° C. Enzyme activity was measured using the spectrophotometric assay as described in Example 1. Thermostability was also tested via the spectrophotometric assay by pre-incubation of both wild-type and mutants at 37° C. for various times. Additionally, the nature of the thermo-instability of both the wild-type and T172R mutant was analyzed by polyacrylamide gel electrophoresis under denaturing and non-denaturing conditions. Briefly, mutant and wild-type enzyme at 0.1 mg/ml were incubated at 37° C. for various time-points, cooled to 4° C., mixed with SDS-loading dye containing-mercaptoethanol and run on 10% SDS-PAGE gels (denaturing conditions) or run on native 10% polyacrylamide gels (non-denaturing conditions) at 4° C. Gels were fixed with 10% methanol, 7% acetic acid for 30 minutes, and then stained with Sypro-Ruby protein gel stain (Molecular Probes, Invitrogen) for 3 hours. Protein staining was visualized under UV-light using an AlphaImager™ 3400 (Alpha Innotech). Finally, the exact melting temperature of both the wild-type and T172R mutant were determined by circular dichroism using a JASCO-810 spectropolarimeter driven by a JASCO V500/FP-750 analysis program for Windows. The CD spectra were measured in millidegrees and normalized against PBS buffer.
as §2
as §1, with “Cocaine is the natural substrate of Cocaine esterase (CocE). Cocaine cleavage was monitored by a drop in absorbance at 240 nm. Cocaine (mM range)” for “Benzoic acid”, “33). Cocaine” for “35). Benzoic acid”, “34),” for “36),”

[9] = Cocaine spectrophotometric assay (240 nm), Michaelis-Menten kinetics
[10] = Gel filtration of samples incubated at 37° C.; format: physicochemical
Method: Higher Km values on day 3 were due to reuse of old cocaine.
Protection from aggregation of thermal stable CocE mutants was assessed using size exclusion chromatography. Briefly, enzymes were preincubated at 37° C. for 0 minutes or 60 minutes and resolved by size exclusion chromatography.

[11] = system: cocaine-induced lethality; details: rats; cited from earlier work
[12] = against (-) cocaine; cited from earlier work
[13] = CocE activity recovered after pegylation (initial rates of cocaine hydrolysis); details: m-PEG 5.5 KDa, preliminary

COC(=O)[C@H]1[C@@H](OC(=O)c2ccccc2)C[C@@H]2CC[C@H]1N2C [cocaine]
estimated peak cocaine blood concentration ([1]; 100 mg/kg cocaine i.p.): 35 µM
estimated peak cocaine blood concentration ([1]; 320 mg/kg cocaine i.p.): 113 µM
time to death ([2]; 180 mg/kg i.p. cocaine alone, mice): about 3 min
lethal concentrations [3]: 20 to 200 µM
animals in which death was observed ([4]; 100 mg/kg cocaine, rats): 100%
time to death after administration ([4]; 100 mg/kg cocaine, rats): less than 15 minutes
time of peak plasma levels ([5]; after an intraperitoneal injection): about 13 minutes
lethal blood concentrations ([5]; rat): 50 to 128 µM

O=C(O)c1ccccc1 [Benzoic acid]
Ki (CocE [6]): 310 µM
37° C.-induced activity loss (CocE [7]): stabilized
37° C.-induced formation of high molecular weight CocE aggregates (CocE [8]): prevented

B1: N197K (protein)
chain: MVDGNYSVASNVMVPMRDGVRLAVDLYRPDADGPVPVLLVRNPYDKFDVFAWSTQSTNWLEFVRDGYAVVIQDTRGLFASEGEFVPHVDDEADAEDTLSWILEQAWCDGNVGMFGVSYLGVTQWQAAVSGVGGLKAIAPSMASADLYRAPWYGPGGALSVEALLGWSALIGTGLITSRSDARPEDAADFVQLAAILKDVAGAASVTPLAEQPLLGRLIPWVIDQVVDHPDNDESWQSISLFERLGGLATPALITAGWYDGFVGESLRTFVAVKDNADARLVVGPWSHSNLTGRNADRKFGIAATYPIQEATTMHKAFFDRHLRGETDALAGVPKVRLFVMGIDEWRDETDWPLPDTAYTPFYLGGSGAANTSTGGGTLSTSISGTESADTYLYDPADPVPSLGGTLLFHNGDNGPADQRPIHDRDDVLCYSTEVLTDPVEVTGTVSARLFVSSSAVDTDFTAKLVDVFPDGRAIALCDGIVRMRYRETLVNPTLIEAGEIYEVAIDMLATSNVFLPGHRIMVQVSSSNFPKYDRNSNTGGVIAREQLEEMCTAVNRIHRGPEHPSHIVLPIIKRLEHHHHHH
modifications: Mutant CocE polypeptide
Km ([9]; Day 0, (0) at 37° C.): 34.8 µM
Km ([9]; Day 0, (60) at 37° C.): 24.2 µM
Km ([9]; Day 3 repeat, (0), old cocaine reused): 102 µM
Km ([9]; Day 3 repeat, (60), old cocaine reused): 114 µM
stability after 1 hour at 37° C. ([9]; day 0, preliminary): good stability
gel filtration result [10]: formation of aggregates

B2: BChE: serum butyrylcholinesterase (protein, UniProt P06276 29-602, looked up)
Cholinesterase: EDDIIIATKNGKVRGMNLTVFGGTVTAFLGIPYAQPPLGRLRFKKPQSLTKWSDIWNATKYANSCCQNIDQSFPGFHGSEMWNPNTDLSEDCLYLNVWIPAPKPKNATVLIWIYGGGFQTGTSSLHVYDGKFLARVERVIVVSMNYRVGALGFLALPGNPEAPGNMGLFDQQLALQWVQKNIAAFGGNPKSVTLFGESAGAASVSLHLLSPGSHSLFTRAILQSGSFNAPWAVTSLYEARNRTLNLAKLTGCSRENETEIIKCLRNKDPQEILLNEAFVVPYGTPLSVNFGPTVDGDFLTDMPDILLELGQFKKTQILVGVNKDEGTAFLVYGAPGFSKDNNSIITRKEFQEGLKIFFPGVSEFGKESILFHYTDWVDDQRPENYREALGDVVGDYNFICPALEFTKKFSEWGNNAFFYYFEHRSSKLPWPEWMGVMHGYEIEFVFGLPLERRDNYTKAEEILSRSIVKRWANFAKYGNPNETQNNSTSWPVFKSTEQKYLTLNTESTRIMTKLRAQQCRFWTSFFPKVLEMTGNIDEAEWEWKAGFHRWNNYMMDWKNQFNDYTSKKESCVGL
treatment required for protection against an LD50 dose of cocaine [11]: 10 mg/kg
change in the dose of cocaine necessary to kill the mice ([2]; 1 mg): slight increase
time to death ([2]; 1 mg): not modified
Kcat [12]: 0.0683 s⁻¹
Km [12]: 4.5 µM
protection against cocaine-induced lethality ([4]; 13 mg (10-times molar equivalent dose), one minute before 180 mg/kg cocaine): no protection

B3: PEG-CocE: wild-type CocE linked with monomethoxy-PEG polymers (MW 5.5 KDa), mixture with 1 to 4 PEG chains (conjugate, UniProt Q9L9D7 1-574, looked up)
Cocaine esterase: MVDGNYSVASNVMVPMRDGVRLAVDLYRPDADGPVPVLLVRNPYDKFDVFAWSTQSTNWLEFVRDGYAVVIQDTRGLFASEGEFVPHVDDEADAEDTLSWILEQAWCDGNVGMFGVSYLGVTQWQAAVSGVGGLKAIAPSMASADLYRAPWYGPGGALSVEALLGWSALIGTGLITSRSDARPEDAADFVQLAAILNDVAGAASVTPLAEQPLLGRLIPWVIDQVVDHPDNDESWQSISLFERLGGLATPALITAGWYDGFVGESLRTFVAVKDNADARLVVGPWSHSNLTGRNADRKFGIAATYPIQEATTMHKAFFDRHLRGETDALAGVPKVRLFVMGIDEWRDETDWPLPDTAYTPFYLGGSGAANTSTGGGTLSTSISGTESADTYLYDPADPVPSLGGTLLFHNGDNGPADQRPIHDRDDVLCYSTEVLTDPVEVTGTVSARLFVSSSAVDTDFTAKLVDVFPDGRAIALCDGIVRMRYRETLVNPTLIEAGEIYEVAIDMLATSNVFLPGHRIMVQVSSSNFPKYDRNSNTGGVIAREQLEEMCTAVNRIHRGPEHPSHIVLPIIKR
modifications: monomethoxy-PEG 5.5 kDa, 1-4 chains
initial CocE activity recovered after the pegylation reaction [13]: > 70%
